Measurements taken from publication PMC9425029, “Secretagogin is a Ca^2+-dependent stress-responsive chaperone that may also play a role in aggregation-based proteinopathies” (The Journal of Biological Chemistry, 2022).

Target: the molecule itself
Experiment: SAXS; oxidizing conditions (100 μM H2O2), SCGN about 5-15 mg/ml, without or with 8 mM Ca2+; 50 mM Tris pH 7.5, 100 mM KCl

B1: Secretagogin (mouse SCGN) (natural protein, UniProt Q91WD9 1-276, looked up)
chain: MDNARRKTPARLDAACFWQIWQRFDKEEKGYIRETELDAFFDHLLAKSGTEDTLMEENVQKVKEQLMTSHNVSKEGRILMKELASMFLSEDENFLLFFRLETPLDNSVEFMQIWRKYDADSSGFISAAELCNFLRDLFLHHKKNISEAELEEYTSTMMKIFDKNKDGRLDLNDLARILALQENFLLQFKMDASSTEERKRDFEKIFAHYDVSKTGALEGPEVDGFVKDMMELVQPSISGVDLDKFREILLRHCDVNKDGKIQKSELALCLGLKINP
notes: secretagogin, mouse, cloned in pET21b; Used Ca2+-free (apo) or with Ca2+ (holo); the assays tell them apart; also called apo-SCGN; holo-SCGN; source: E. coli BL21-DE3 (pET21b), purified (Ni-NTA-Sepharose, size-exclusion chromatography), decalcified with EDTA
binding result: binds
